# Test results as given in patent publication US20230095569A1 (ANTENGENE BIOLOGICS, published 2023).
# What was measured:
# [1] = target: T1, human Claudin18.2 (CLDN18.2) (human, UniProt P56856 1-261); test: FACS on CHOK1-18.2 cells;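 further: antibody binding to the cells detected with a fluorescently labelled secondary antibody and read out as median fluorescence intensity by flow cytometry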
# T1 construct: the cell line is named under assay; also called human Claudine18.2; hClaudin18.2
# Experimental: (§1) The specificity and cross-reactivity of these subclones were confirmed with FACs analysis. […] Fluorescent dye-conjugated secondary antibody was used to detect the binding of the primary antibody with the cells. Median fluorescence intensity (MFI) was measured by FACs analysis.
# [2] = target: T2, human Claudin18.1 (CLDN18.1) (human, UniProt P56856 1-261); test: FACS on CHOK1-18.1 cells;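 on FACS MFI: test antibody binding to the cells detected by flow cytometry using a fluorescent dye-labelled secondary antibody, read out as median fluorescence intensity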;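 on result: antibody binding to cells detected with a fluorescently labelled secondary antibody, read out as median fluorescence intensity (MFI) by flow cytometry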
# T2 construct: whole, on cells; also called human Claudine18.1
# Experimental: as §1
# [3] = target: T2, human Claudin18.1 (CLDN18.1); test: FACS on CHOK1-18.1 cells; remark: listed apart in the source;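 on FACS MFI: test antibody binding to the cells detected by flow cytometry using a fluorescent dye-labelled secondary antibody, read out as median fluorescence intensity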;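 on result: antibody binding to cells detected with a fluorescently labelled secondary antibody, read out as median fluorescence intensity (MFI) by flow cytometry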
# Experimental: as §1
Binder,FACS MFI [1],FACS MFI [2],binding result [3]
"Ab03 (antibody, V domains shown, mouse monoclonal (hybridoma)) VH: EVQLQQSGPELVKPGASVKIACKASGYTFTDYNMDWVKQSHGKSLEWIGNINSYYGGTIYNQKFKGKATLTVDKSSSTAYMVLRSLTSEDNAVYYCARPHLGNALDYWGQGTSITVSS VL: DIVVTQSPSSLTVTPGEKVTMSCKSSQSLFNSGNQKNYLSWYQQNPGQPPKLLIYWASTRQSGVPDRFTGSGSGTDFTLTISSVQAEDLAGYYCQNDYIFPLTFGAGTKLELK",1960,95.6,no binding
"Ab31 (antibody, V domains shown, mouse monoclonal (hybridoma)) VH: QIQLAQSGPELKKPGETVKISCKASGYSFTNYGMNWVKQAPGKGLKWMGWINTYSGETKYADDFKGRFDFSLETSARTAYLQIKNLKIEDTATYFCARRDAMDYWGQGTSVTVSS VL: DIVMTQAAPSVPVTPGESVSISCRSSKSLLNSNGNTYLYWFLQRPGQSPQLLIYRMSNLASGVPDRFSGSGSGTAFTLRISRVEAEDVGVYYCMQHLEFPFTFGSGTKLEIK",5520,97,no binding
"Ab29 (antibody, V domains shown, mouse monoclonal (hybridoma)) VH: EVLLQQSGPELVKPGASVKIPCKASGYTLTDHSMDWVKQSHGKSLEWIGNILPNNGGNIYNQKFRGKATLTVDKSSSTAYMELRSLTSEDTAVYNCARGHYGNSFAYWGQGTLVIVS VL: DIVMTQSPSSLTVRAGEKVTIYCKSSQSLFNSGNQKNYLTWYQQKPGQPPKLLIYWASTRESGVPHRFTGSGSGTDFTLTISSMQADDLATYYCQNGYFFPYTFGGGTKLEIK",19100,97,no binding
"Ab21 (antibody, V domains shown, mouse monoclonal (hybridoma)) VH: EVMLVESGGGLVKPGGSLKLSCAASGFTFSSYTMSWVRQTPEKRLEWVATIIGGYGNTYYVDSVKGRFTISRDSAKNTLYLQMISLRSEDTALYYCTRLGQTQRNAMDYWGQGTSVTVSS VL: DILMTQSPSSLSVSAGEKVTMSCKSSQSLLNSGNQKNYLAWYQQKPGQPPKLLIYGASTRESGVPDRFTGSGSGTDFTLTISSVQAEDLAVYYCQNDYYYPFTFGAGTKLEL",10100,79.4,no binding
"Ab26 (antibody, V domains shown, mouse monoclonal (hybridoma)) VH: EVMLVESGGGLVKPGGSLKLSCTASGFTFRSYTMSWVRQTPEKRLEWVATITGGGGNTYFLDSVKGRFTFSRDNAKNALYLQMNSLRSEDTALYYCARLGQTQRNAMDYWGQGTSVTVSS VL: DIVMTQSPSSLSVSAGEKVTMSCKSSQSLLNSGNQMNYLAWYQQKPGQPPKLLIYGASTRESGVPDRFTGSGSGTDFTLTISSVQAEDLAIYYCQNDHTYPLTFGAGTKLEL",9730,80.8,no binding
"Ab23 (antibody, V domains shown, mouse monoclonal (hybridoma)) VH: EVMLVESGGGLVKPGGSLKLSCVASGFTFSSYTMSWVRQTPEKRLEWVATLSVVGGNTYYVDSVKGRFTISRDKAKNTLYLQMSSLRSEDTALYYCARLGQTQRNAMDYWGQGTSVTVSS VL: DIVMTQSPSSLSVSAGEKVTMSCKSSQSLLNSGNQKNYLAWYQQKPGQPPKLLIYGASTRESGVPDRFTGSGSGTDFTLTISSVQAEDLAVYYCQNDYSYPLTFGAGTKLEL",8600,82.3,no binding
"Ab22 (antibody, V domains shown, mouse monoclonal (hybridoma)) VH: EVMLVESGGGLVKPGGSLKLSCAASGFTFSSYTMSWVRQTPEKRLEWVATIIGGYGNTYYADSVKGRFTISRDSAKNTLYLQMISLRSEDTALYYCTRLGQTQRNAMDYWGQGTSVTVSS VL: DILMTQSPSSLSVSAGEKVTMSCKSSQSLLNSGNQKNYLAWYQQKPGQPPKLLIYGASTRESGVPDTFTGSGSGTDFTLTISSVQAEDLAVYYCQNDYYYPFTFGAGTKLEL",9020,82.3,no binding
"Ab20 (antibody, V domains shown, mouse monoclonal (hybridoma)) VH: EVMLVESGGGLVKPGGSLKLSCVASGFTFSSYTMSWVRQTPEKRLEWVATIIGGYGNTYYSDSVKGRITISRDSAKNTLYLQMISLRSEDTALYYCTRLGQTQRNAMDYWGQGTSVTVSS VL: DILMTQSPSSLSVSAGEKVTMNCKSSQSLLNSGNQKNYLAWYQQKPGQPPKLLIYGASTRESGVPDRFTGSGSGTDFTLTISSVQAEDLAVYYCQNDYYYPFTFGAGTKLEL",7580,82.3,no binding
"Ab27 (antibody, V domains shown, mouse monoclonal (hybridoma)) VH: QVQLQQSGAELVRPGSSVKISCKASGYAFSNYWMNWVKQRPGQGLEWIGQIYPGNGDTNYNGKFKGKATLTADKSSTTAYIQLSSLTSEDSAVYFCTRIYYGNSFAYWGQGTLVTVS VL: DIVMTQSPSSLTVTAGERVTMSCKSSQSLLNSGNQKNYLTWYQQKPGQPPKLLIYWASTRESGVPDRFTGSGSGTDFTLTISRVQAQDLAVYYCQNDYYYPLTFGAGTKLELK",7150,97,no binding
"Ab32 (antibody, V domains shown, mouse monoclonal (hybridoma)) VH: QVQLKESGPGLVAPSQSLSITCTVSGFSLTSHGVHWVRQPPGKGLEWLGVIWAGGSINFNSALMSRLSISKDNSKNQVFLKMNSLQSDDTAMYYCARDYYYGIGLDYWGQGTTLTVS VL: DIVMTQSPSSLSVSAGEKVTMSCKSSQSLLNSGNQKNYLAWYQQKPGQPPKLLIYGASTRESGVPDRFTGSGSGTDFTLTISSVQAEDLAVYYCQNDYYYPFTFGSGTKLEIK",8730,172,no binding
"Ab33 (antibody, V domains shown, mouse monoclonal (hybridoma)) VH: DVNLVESGGGLVKPGGSLKLSCAASGFTFSSYTMSWVRQTPEKRLEWVATITYGRIYTYYLDSVKGRFTISRDNAKNTLYLQMSSLRSEDTAMYYCTRMITGNAMDSWGLGTSVTVSS VL: DIVMTQSPSSLTVTAGEKVTMSCKSSQSLLNSGNQKNYLTWYQQKPGQPPKLLIYWASTRESGVPDRFTGSGSGTDFTLTISGVQGEDLAVYYCQNDYSYPLTFGGGTKLELK",8200,97,no binding
"Ab28 (antibody, V domains shown, mouse monoclonal (hybridoma)) VH: QVQLKESGPGLVAPSQSLSITCTVSGFSLTSHGVHWVRQPPGKGLEWLGVIWAGGSINFNSALMSRLSISKDNSKNQVFLKMNSLQSDDTAMYYCARDYYYGIGLDYWGQGTTLTVS VL: DIVMTQSPSSLSVSAGEKVTMSCKSSQSLLNSGNQKNYLAWYQQKPGQPPKLLIYGASTRESGVPDRFTGSGSGTDFTLTISSVQAEDLAVYYCQNDYYYPFTFGSGTKLEIK",8880,206,no binding
"Ab04 (antibody, V domains shown, mouse monoclonal (hybridoma)) VH: EVQLQQSGPELVKPGASVKMSCMASGYTFTDYNIHWVKRSHGSRLEWIGYISPISGGAGYNQKFMDKATLTVDKSSNTAYMELRSLTSEDSAVYYCTRGDYWGQGTTLTVSS VL: DIVMTQSPSSLAVTVGEKVTMSCKSSQSLLNSGNQKNYLTWYQQKPGQPPKLLIYWASTRKSGVPDRFTGSGSGTDFTLTISSVQAEDLGIYYCLNDYGFPLTFGAGSKLELK",17600,6920,
"Ab34 (antibody, V domains shown, mouse monoclonal (hybridoma)) VH: EVLLQQSGPELVKPGASVKIPCKASGYTFSDYNMDWVKQSHGKSLEWIGHINPNNDNTIYNQKFKGKATLTVDKSSNTAYMDLRSLSSEDTAVYYCARGAYYGNSMDYWGQGTSVTVSS VL: DIVMTQSPSSLTVTAGERVTMSCKSSQSLLNGGNQRNYLTWYQQKPGQSPKLLIYWASTWESGVPDRFTGSGSGTDFTLTISSVQAEDLAVYYCQNAYFYPYTFGGGTKLEIK",9070,91.1,no binding
"Ab38 (antibody, V domains shown, mouse monoclonal (hybridoma)) VH: QIQLVQSGPELKKPGETVKISCKASGYTFTNYGMSWVKQAPGKGLKWMGWINTYSGVPTYADDFKGRFVFSLEASASTAYLQINNLKNEDAATYFCSRWSGPDPLEDHWGQGTTLTVSS VL: QIVLTQSPAIMSASPGEKVTMTCTASLSLNYIHWYRQRSGTSPKRWIYDTSKLASGVPSRFSGSGSGTSYSLTISSMEAEDAATYYCQQWSSNPWTFGGGTKLEIK",15700,,
"Ab30 (antibody, V domains shown, mouse monoclonal (hybridoma)) VH: QVQLKESGPGLVAPSQSLSITCTVSGFSLTKFGVNWVRQPPGKGLEWLGAIWGDGSTNYHSALISRLSINKDNSKSQVFLKLSSLQNVDTATYYCAKSGYGNAMDYWGHGTSVTVSS VL: DIVMTQSPSSLTVTTGEKVTLNCKSSQSLLNSGNLKNYLTWYQQRPGQPPKLLIYWASTRESGVPYRFTGSGSGTDFTLTISNVQAEDLAIYYCQNDYFFPFTFGSGTKLEIK",7560,98.5,no binding
"Ab01 (antibody, V domains shown, mouse monoclonal (hybridoma)) VH: DVQLQESGPGLVKPSQSLSLTCSVTGYSITSGYYWNWIRQFPGNKLEWMGYITYDGSNNYNPSLKNRISITRDTSKNQFFLKLNSVTTEDAATYFCARDPNYYGTTLPAWFVYWGQGTLVTVSA VL: DIVVTQSHKFMSTSVGDRVSITCKASQDVGTAVAWYQQKPGQSPKLLIYWASTRHTGVPDRFTGSGSGTDFTLTISNVQSEDLTDYFCQQYSSYVTFGAGTKLELK",12300,7250,
"Ab36 (antibody, V domains shown, mouse monoclonal (hybridoma)) VH: EVKLEESGGGLVQPGGSMKLSCVASGFTFSNYWMNWVRQSPEKGLEWVAQIRLKSDNYATHYAESVKGMFTISRDDSKSSVYLQMNNLRAEDTGIYYCTAGGDYWGQGTTLTVSS VL: DIVMTQSQKFMSTTVGDRVSITCKASQNVGTAVAWYHQKPGQSPKLLIYSASNRYTGVPDRFIGSGSGTDFTLTISNVQSEDLGNYFCQQYINYLLTFGSGTKLEIK",18000,,
"Ab37 (antibody, V domains shown, mouse monoclonal (hybridoma)) VH: EVKLEESGGGLVQPGGSMKLSCVASGFTFSNYWMNWVRQYPEQGLEWVAQIRLNSDNYATHYAESVKGRFTISRDDSRSTVYLQMNNLRAEDTGIYYCTGGGEYWGQGTTLTVSS VL: DIVMTQSQKFMSTTIGDRVSITCKASQNVDTAVAWYQQKPGQSPKLLIYSASTRYTGVPDRFTGSGSGTDFTLTISNMQSEDLADYFCQQYISYQLTFGAGTKLELK",15200,4590,
